This is an account of results in patent publication US20110172391A1 (published 2011).

The target in one assay is precursor protein MINC (Synechocystis sp. PCC6803). The assay is described as follows: cell-based or functional assay.
The next assay has as its target N-precursor protein MINH (Synechocystis sp. PCC6803). The assay is described as follows: cell-based or functional assay.

B1: 6-aa Ic peptide (peptide)
peptide: GVFVHN
B1: the “N-cleavage rate against the longer Ic peptide (with 10 mM or 100 mM DTT)” value in the assay with precursor protein MINC was about 2 fold slower.

B2: 8-aa Ic peptide (peptide)
peptide: GVFVHASG
In the case of B2, in the assay with precursor protein MINC, the “fold increase of the N-cleavage rate constant with 10 mM DTT against the Ic peptide alone” value is about 2 fold and the “fold increase of the N-cleavage rate constant with 100 mM DTT against the Ic peptide alone” value was about 10 fold.

B3: synthetic peptide (ICF) (peptide)
peptide: GVFVHNSADYKDDDDKSGCLAGDTLITLAS
For B3, in the assay with N-precursor protein MINH, the “rate constant (kobs) of the trans-splicing reaction, pseudo-first order, 10-fold molar excess of ICF” value worked out at 6.9e-05 s⁻¹.
